# B1: MAB-16-0030, humanized anti-IL-1R3 IgG1-LALA antibody (antibody, V domains shown)
# VH: EVQLEESGGRLVQPGTSLRLSCAVSGFSLSSYDMSWVRQAPGKGLEWVSTIYIGGTTAYASWPKGRFTISKTNSKNTLYLQMNSLRAEDTAVYFCARLQGANYYNSLALWGQGTLVTVSS
# VL: DVQMTQSPSSLSASVGDRVTITCQASQSIYSFLSWYQQKPGQAPKLLIYAASDLESGVPSRFSGSGSGTDFTLTISSLQPEDFATYYCQCNYIIDYGAFGQGTKVVIKR
# notes: Humanized IgG1 with L234A and L235A (IgG1-LALA); also called anti-hIL-1R3 antibody MAB-16-0030; IgG1-LALA version of MAB-16-0030
# Target: T1, human IL-1R3 expressed on cells (SK-MEL-30 and other human cell lines) (human, UniProt Q9NPH3 21-570)
# T1 construct: whole, on cells; also called hIL1R3; IL-1RAcP
# T1 sequence (looked up): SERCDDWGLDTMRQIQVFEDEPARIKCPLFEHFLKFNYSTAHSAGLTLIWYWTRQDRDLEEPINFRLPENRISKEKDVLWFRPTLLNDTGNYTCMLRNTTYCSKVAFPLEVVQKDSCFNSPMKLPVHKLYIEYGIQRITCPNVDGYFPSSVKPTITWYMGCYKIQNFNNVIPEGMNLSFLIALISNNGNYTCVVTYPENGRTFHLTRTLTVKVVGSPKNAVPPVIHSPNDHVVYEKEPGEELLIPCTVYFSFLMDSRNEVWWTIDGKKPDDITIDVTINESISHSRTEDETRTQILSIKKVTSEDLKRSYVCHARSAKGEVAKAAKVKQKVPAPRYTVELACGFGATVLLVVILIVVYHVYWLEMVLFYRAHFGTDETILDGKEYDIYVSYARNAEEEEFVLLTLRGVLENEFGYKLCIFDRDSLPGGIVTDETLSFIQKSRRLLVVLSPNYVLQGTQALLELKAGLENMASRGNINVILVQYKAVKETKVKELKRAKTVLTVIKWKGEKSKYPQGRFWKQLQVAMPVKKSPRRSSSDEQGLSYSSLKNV
# Experiment: flow cytometry on the high-IL-1R3-expressing cell line SK-MEL-30
binder,measurement,value
B1,EC50,0.307 µg/mL
